The results in this text go back to patent US20230181754A1 (BRIGHT PEAK THERAPEUTICS, published 2023).

Assay [1] has as its target T1, recombinant biotinylated human Fc gamma receptor I (FcγRI/CD64) (human, UniProt P12314 16-288, limits assumed, biotinylated).
T1 construct: also called FcγR1
The assay can be described thus: AlphaLISA competition: free antibody competes with human IgG Fc on acceptor beads for biotinylated human FcγRI on streptavidin donor beads. (In Alpha technology, singlet oxygen from a donor bead excites a nearby acceptor bead.)

For assay [2], the target named is T2, recombinant biotinylated human Fc gamma receptor IIa (FcγRIIa/CD32a 167H) (human, UniProt P12318 36-218, limits assumed, biotinylated).
T2 sequence (looked up): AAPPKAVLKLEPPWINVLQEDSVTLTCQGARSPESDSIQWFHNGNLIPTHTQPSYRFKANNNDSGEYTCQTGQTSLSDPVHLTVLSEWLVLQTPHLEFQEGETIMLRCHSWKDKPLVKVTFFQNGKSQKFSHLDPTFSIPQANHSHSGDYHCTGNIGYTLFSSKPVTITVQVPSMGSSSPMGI
The assay is described as follows: AlphaLISA competition: free antibody competes with human IgG Fc on acceptor beads for biotinylated human FcγRIIa on streptavidin donor beads.

T1 sequence (P12314 16-288 limits assumed): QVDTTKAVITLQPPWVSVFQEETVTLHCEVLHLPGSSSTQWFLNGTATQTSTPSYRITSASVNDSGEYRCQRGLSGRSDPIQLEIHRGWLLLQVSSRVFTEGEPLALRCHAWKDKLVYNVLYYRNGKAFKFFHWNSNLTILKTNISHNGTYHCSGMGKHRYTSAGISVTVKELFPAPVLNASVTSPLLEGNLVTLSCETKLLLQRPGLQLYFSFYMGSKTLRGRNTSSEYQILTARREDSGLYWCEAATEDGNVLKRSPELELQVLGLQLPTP

B1: Durvalumab (unmodified anti-PD-L1 antibody) (antibody, human IgG1, kappa)
heavy: EVQLVESGGGLVQPGGSLRLSCAASGFTFSRYWMSWVRQAPGKGLEWVANIKQDGSEKYYVDSVKGRFTISRDNAKNSLYLQMNSLRAEDTAVYYCAREGGWFGELAFDYWGQGTLVTVSSASTKGPSVFPLAPSSKSTSGGTAALGCLVKDYFPEPVTVSWNSGALTSGVHTFPAVLQSSGLYSLSSVVTVPSSSLGTQTYICNVNHKPSNTKVDKRVEPKSCDKTHTCPPCPAPEFEGGPSVFLFPPKPKDTLMISRTPEVTCVVVDVSHEDPEVKFNWYVDGVEVHNAKTKPREEQYNSTYRVVSVLTVLHQDWLNGKEYKCKVSNKALPASIEKTISKAKGQPREPQVYTLPPSREEMTKNQVSLTCLVKGFYPSDIAVEWESNGQPENNYKTTPPVLDSDGSFFLYSKLTVDKSRWQQGNVFSCSVMHEALHNHYTQKSLSLSPGK
light: EIVLTQSPGTLSLSPGERATLSCRASQRVSSSYLAWYQQKPGQAPRLLIYDASSRATGIPDRFSGSGSGTDFTLTISRLEPEDFAVYYCQQYGSLPWTFGQGTKVEIKRTVAAPSVFIFPPSDEQLKSGTASVVCLLNNFYPREAKVQWKVDNALQSGNSQESVTEQDSKDSTYSLSSTLTLSKADYEKHKVYACEVTHQGLSSPVTKSFNRGEC
notes: also called Imfinzi; MEDI-4736
For the molecule B1, the binding result in assay [1] is given as “binds”. Moreover, in assay [2], the “IC50 (read off the curve)” value is approximately 400 nM.
